Reference: US20060024313
Where a chain is given by its changes, count along the chain named. Names may count otherwise.

Biological target: P27487

B1: endogenous DPP-IV purified from human semen (sDPP-IV) (protein)
chain: SRKTYTLTDYLKNTYRLKLYSLRWISDHEYLYKQENNILVFNAEYGNSSVFLENSTFDEFGHSINDYSISPDGQFILLEYNYVKQWRHSYTASYDIYDLNKRQLITEERIPNNTQWVTWSPVGHKLAYVWNNDIYVKIEPNLPSYRITWTGKEDIIYNGITDWVYEEEVFSAYSALWWSPNGTFLAYAQFNDTEVPLIEYSFYSDESLQYPKTVRVPYPKAGAVNPTVKFFVVNTDSLSSVTNATSIQITAPASMLIGDHYLCDVTWATQERISLQWLRRIQNYSVMDICDYDESSGRWNCLVARQHIEMSTTGWVGRFRPSEPHFTLDGNSFYKIISNEEGYRHICYFQIDKKDCTFITKGTWEVIGIEALTSDYLYYISNEYKGMPGGRNLYKIQLSDYTKVTCLSCELNPERCQYYSVSFSKEAKYYQLRCSGPGLPLYTLHSSVNDKGLRVLEDNSALDKMLQNVQMPSKKLDFIILNETKFWYQMILPPHFDKSKKYPLLLDVYAGPCSQKADTVFRLNWATYLASTENIIVASFDGRGSGYQGDKIMHAINRRLGTFEVEDQIEAARQFSKMGFVDNKRIAIWGWSYGGYVTSMVLGSGSGVFKCGIAVAPVSRWEYYDSVYTERYMGLPTPEDNLDHYRNSTVMSRAENFKQVEYLLIHGTADDNVHFQQSAQISKALVDVGVDFQAMWYTDEDHGIASSTAHQHIYTHMSHFIKQCFSLP
- specific activity after serial dilution (H-Gly-Pro-pNA hydrolysis): no decrease in specific activity were observed for either sDPP-IV or rDPP-IV even at a concentration as low as 1.6 nM

B2: DPP-IV H750A mutant (protein)
chain: B1 chain with H712A
- specific activity after serial dilution (H-Gly-Pro-pNA hydrolysis): the specific activity of H750A protein was also constant over the range of 200 nM to 1.6 nM

B3: recombinant wild-type human DPP-IV (rDPP-IV), amino acids 39 to 766, secreted from baculovirus-infected Hi5 insect cells (protein)
chain: B1 chain
- specific activity after serial dilution (H-Gly-Pro-pNA hydrolysis): no decrease in specific activity were observed for either sDPP-IV or rDPP-IV even at a concentration as low as 1.6 nM
